Source: patent US20150344937A1

Molecular target: murine CD4 (murine) (UniProt P06332)
Test: quantitative flow cytometry on murine splenocytes, BD QuantiBrite PE microspheres as standard

Sequence of UniProt P06332 (P06332 27-457): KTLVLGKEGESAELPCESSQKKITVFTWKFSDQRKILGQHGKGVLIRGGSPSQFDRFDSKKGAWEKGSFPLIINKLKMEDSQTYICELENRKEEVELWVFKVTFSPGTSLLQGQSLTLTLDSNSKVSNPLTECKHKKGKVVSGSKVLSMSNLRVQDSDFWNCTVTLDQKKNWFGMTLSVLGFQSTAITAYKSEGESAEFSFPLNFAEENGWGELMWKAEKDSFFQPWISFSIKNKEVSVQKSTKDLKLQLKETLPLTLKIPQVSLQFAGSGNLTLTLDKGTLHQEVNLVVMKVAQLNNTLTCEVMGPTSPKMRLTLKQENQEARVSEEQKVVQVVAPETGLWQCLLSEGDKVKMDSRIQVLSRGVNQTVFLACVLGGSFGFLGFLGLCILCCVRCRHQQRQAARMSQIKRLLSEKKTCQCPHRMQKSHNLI

- Antibody Binding per Cell (ABC) (CD4 antibody per cell): 29700
Substance: Commercially prepared anti-CD4 (clone GK1.5, phycoerythrin conjugate) (antibody)
